Test results reported in publication PMC7386315.

What was measured:
[1] = tested on: AtCdc5-DBD (Arabidopsis thaliana); assay: BLI
[2] = tested on: MoCdc5-DBD (Magnaporthe oryzae P131); assay: BLI

Substance	Kd [1]	Kd [2]
MIR167a	8.98 10^-8 M	5.17 10^-8 M
U6 RNA	–	1.38 10^-8 M
